The target in test [1] is synthetic Aβ1-42 (aggregated in the ELISAs) (human) (UniProt P05067). The test is described as follows: ELISA on aggregated synthetic Aβ1-42; given as ED50.
Test [2] has as its target soluble Aβ1-42, [125I]Aβ1-42 (human) (UniProt P05067). The test is described as follows: capture radioimmunoassay, 50,000 CPM of 125I-Aβ 1-42 (or 125I-Aβ 1-40).

pEC50: −log10 of the molar value.

In turn, monoclonal antibody 12B4 (IgG2a) had a pEC50 in test [1] of 9.18. Besides, in test [2], the % of radioactive counts bound at 10 µg/ml came to 7%.
With monoclonal antibody 10D5 (IgG1), in test [1], the pEC50 is 10.28. The % of radioactive counts bound at 10 µg/ml in test [2] came out at 2%.

For the origin of these results see patent US20060198851A1.
